Literature values as cited in PMC10219547.
Read-outs that look alike come from different tables or passages of the source.

Assays:
[1] = molecular target: PTH1R (Homo sapiens) (UniProt Q03431)
[2] = molecular target: PTH1R (Homo sapiens) (UniProt Q03431); remark: listed apart in the source

Sequence of UniProt Q03431 (Q03431 27-593): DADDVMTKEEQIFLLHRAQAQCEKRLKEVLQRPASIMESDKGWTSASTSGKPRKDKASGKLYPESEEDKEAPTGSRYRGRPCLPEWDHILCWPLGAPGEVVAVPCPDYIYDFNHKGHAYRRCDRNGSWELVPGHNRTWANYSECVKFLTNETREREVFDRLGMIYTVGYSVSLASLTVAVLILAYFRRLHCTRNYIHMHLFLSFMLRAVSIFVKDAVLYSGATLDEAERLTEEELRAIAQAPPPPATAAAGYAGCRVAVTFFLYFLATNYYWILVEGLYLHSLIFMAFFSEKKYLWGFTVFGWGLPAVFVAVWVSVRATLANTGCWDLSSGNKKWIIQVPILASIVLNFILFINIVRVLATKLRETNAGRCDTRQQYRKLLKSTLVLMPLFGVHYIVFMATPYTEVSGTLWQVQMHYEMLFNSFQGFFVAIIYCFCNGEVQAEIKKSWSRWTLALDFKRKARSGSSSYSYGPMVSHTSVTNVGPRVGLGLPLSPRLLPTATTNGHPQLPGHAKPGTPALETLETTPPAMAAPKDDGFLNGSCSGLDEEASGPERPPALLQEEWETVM

TIP(7-39) 7-39 (from UniProt Q96A98)
Kd [1]: 0.017 µM

TIP39 (from UniProt Q96A98)
Kd [2]: 0.06 µM
